Results reported in US11541125B2, “Noncrushable pill formulations” (THE REGENTS OF THE UNIVERSITY OF CALIFORNIA, priority 2016, dated 2023).
Where two headings read alike, the source gives them in different places. Square brackets hold non-standard residues; d marks the D form. Side chains are listed from the residue outwards. Peptide text beside a SMILES is read from it. * marks the point of attachment. ξ: configuration not given here. X2 = CN(CCN*)C(=S)Oc1ccc2c3c1O[C@H]1C(=O)CC[C@@]4(O)[C@@H](C2)N(CC2CC2)CC[C@]314; X1 = CN(CCN*)C(=O)Oc1ccc2c3c1OC1C(=O)CCC4(O)C(C2)N(CC2CC2)CCC314; X4 = CN(CCN*)C(=O)Oc1ccc([N+](=O)[O-])cc1; Trt = c1ccc(C(c2ccccc2)(c2ccccc2)*)cc1; ξF = NC(Cc1ccccc1)C(=O)O; Boc = CC(C)(C)OC(=O)*; ξK = NCCCCC(N)C(=O)O; ξC = NC(CS)C(=O)O; ξA = CC(N)C(=O)O

Experiments:
[1] = test system: trypsin and/or chymotrypsin; test: pNA release assay (absorbance at 405 nm); type: biochemical; conditions: 2 mM, incubated with trypsin and/or chymotrypsin, 90 minutes, 37° C.
Procedure: A stock solution of the CAAK(F)-diamino-pNA was prepared in dimethyl sulfoxide (DMSO) to produce a 16.0 mg/mL solution. A 7.5 mg/mL stock solution of the trypsin was prepared in 50 mM NH4HCO3 buffer (pH=8.05). A 7.5 mg/mL stock solution of chymotrypsin was prepared in 50 mM NH4HCO3 buffer (pH=8.05).
A 96 well plate was used for monitoring the solutions at 405 nm using a plate reader. 20 μL of the peptide was combined with 62.0/66.6 μL of no enzyme, trypsin only, chymotrypsin only, or with both enzymes respectively. All solutions were diluted to a total volume of 200 μL using 50 mM NH4HCO3 (pH=8.05). Blanks were prepared by combining the enzymes with DMSO/buffer and their absorbances were subtracted from the cleavage conditions. Additionally, the residual signal from the peptide in the presence of no enzymes was also used as a blank and subtracted out from enzymatic conditions.

[2] = Procedure: In order to determine the stability of the enzymatically cleavable covalent linkage between the dual-enzyme responsive peptide and Naltrexone, the drug conjugates (below) were synthesized and subjected to a range of different pH buffers that were chosen to emulate the pH range of typical household chemicals (pH 2-10).
The stabilities of these linkages were assessed by HPLC by monitoring the relative amount of Naltrexone versus the intact peptide-Naltrexone conjugate.

[3] = conjugate sample, no pH buffer named

| Compound | theoretical pNA released [1] [%] | stability over the entire pH range ([2]; HPLC, pH buffers) | Percent Degradation, t = 0.5 hr [2, 3] [%] | Percent Degradation, t = 24 hr [2, 3] [%] | Percent Degradation, t = 0.5 hr ([2]; in pH 2) [%] | Percent Degradation, t = 0.5 hr ([2]; in pH 4) [%] | Percent Degradation, t = 0.5 hr ([2]; in pH 7) [%] | stability of the linkage relative to the other linkers ([2]; HPLC, Naltrexone versus intact conjugate, pH buffers) | Percent Degradation, t = 24 hr ([2]; in pH 2) [%] |
| --- | --- | --- | --- | --- | --- | --- | --- | --- | --- |
| CC(=O)NC(CS)C(=O)NC(C)C(=O)NC(C)C(=O)NC(CCCCNC(=O)C(N)Cc1ccccc1)C(=O)NCCN(C)C(=O)Oc1ccc([N+](=O)[O-])cc1 (centres unmarked) [CAAK(F)-diamino-pNA] (Ac-CAAK(Phe)-X4; configuration not given here) | 55 | – | – | – | – | – | – | – | – |
| CC(=O)NC(CSC(c1ccccc1)(c1ccccc1)c1ccccc1)C(=O)NC(C)C(=O)NC(C)C(=O)NC(CCCCNC(=O)C(Cc1ccccc1)NC(=O)OC(C)(C)C)C(=O)NCCN(C)C(=O)Oc1ccc2c3c1OC1C(=O)CCC4(O)C(C2)N(CC2CC2)CCC314 (centres unmarked) [NPC] (Ac-C(Trt)AAK([Phe-Boc])-X1; configuration not given here) | – | very good stability | 0 | 0 | 6.00 | 3.50 | 1.50 | – | – |
| CC(=O)NC(CS)C(=O)NC(C)C(=O)NC(C)C(=O)NC(CCCCNC(=O)C(N)Cc1ccccc1)C(=O)NCCN(C)C(=S)Oc1ccc2c3c1O[C@H]1C(=O)CC[C@@]4(O)[C@@H](C2)N(CC2CC2)CC[C@]314 (some centres unmarked) [NPT] (Ac-[ξC][ξA][ξA][ξK](ξF)-X2) | – | – | 0.51 | 2.90 | – | – | – | more stable than the carbamate linker | 4.10 |
